Measured values as given in US7169892B2, “Lipid-peptide-polymer conjugates for long blood circulation and tumor specific drug delivery systems” (Astellas Pharma Inc., priority 2003, dated 2007).
The star is where a group is joined. amidopropyl polyoxyethylene methyl ether = C-terminal amidopropyl PEG methyl ether; Fmoc = O=C(OCC1c2ccccc2-c2ccccc21)*

Target: T1, MMP-2 (Homo sapiens, UniProt P08253)
T1 sequence (P08253 110-660): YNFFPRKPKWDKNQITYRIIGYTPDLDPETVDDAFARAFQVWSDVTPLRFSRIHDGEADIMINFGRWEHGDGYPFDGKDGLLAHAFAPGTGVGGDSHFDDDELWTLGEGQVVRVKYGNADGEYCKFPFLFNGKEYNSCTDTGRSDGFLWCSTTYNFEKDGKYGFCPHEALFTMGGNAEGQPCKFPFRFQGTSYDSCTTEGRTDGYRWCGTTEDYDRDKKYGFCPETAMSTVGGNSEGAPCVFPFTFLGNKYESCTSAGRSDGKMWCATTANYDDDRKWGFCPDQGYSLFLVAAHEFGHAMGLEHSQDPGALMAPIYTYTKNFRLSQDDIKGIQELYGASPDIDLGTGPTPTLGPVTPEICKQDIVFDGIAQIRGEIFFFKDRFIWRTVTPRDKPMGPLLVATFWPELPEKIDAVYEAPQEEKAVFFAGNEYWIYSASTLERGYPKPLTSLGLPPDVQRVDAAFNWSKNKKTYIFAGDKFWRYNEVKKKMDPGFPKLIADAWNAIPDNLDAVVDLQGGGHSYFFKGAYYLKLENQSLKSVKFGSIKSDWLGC
Experiment: Degradation of Fmoc-GPQGIAGWG-PEG by MMP-2 (gel filtration)
Type: biochemical
Conditions: per unit weight of MMP-2 and unit time, beginning (15 minutes), MMP-2 0.34 μg/ml, 37° C., FIG. 4
Experimental: After mixing in 0.5 ml of sample in 0.5 ml of acetonitrile, the mixture was filtered and gel filtration was performed.
The effects on degradation by MMP-2 when PEG bonded with Fmoc-GPQGIAGWG (SEQ ID NO:21) were evaluated.
MMP-2 solution was diluted with Tris buffer. […] The final concentration of MMP-2 was 0.34 μg/ml. […] The Fmoc-GPQGIAGWG-PEG (SEQ ID NO:22) in the filtrate was separated and quantitatively determined by gel filtration.

degradation rate by MMP-2 compared with Fmoc-GPQGIAGWG: virtually the same
Substance: 9-fluorenylmethyloxycarbonyl (Fmoc)-glycyl-prolyl-glutamyl-glycyl-isoleucyl-alanyl-glycyl -tryptophanyl-glycyl (Fmoc-Gly-Pro-Gln-Gly-Ile-Ala-Gly-Trp-Gly)-amidopropyl polyoxyethylene methyl ether (Fmoc-GPQGIAGWG-{amidopropyl polyoxyethylene methyl ether}) [Fmoc-GPQGIAGWG-PEG]
